Test results reported in US11505783B2, “Differentiation of human embryonic stem cells” (Janssen Biotech, Inc., priority 2007, dated 2022).
Like-named read-outs stand apart in the source and are kept apart here.

Legend:
[1] = tested on: human embryonic stem cell line H1; settings: end of stage 5, real-time PCR
Description: (§1) Cells of the human embryonic stem cell line H1, at passage 51 were cultured on […]™ coated dishes (1:30 dilution) and exposed to DMEM/F12 medium supplemented with 0.5% FBS, and 100 ng/ml Activin-A (R&D Systems, MN) plus 20 ng/ml WNT-3a (Catalog #1324-WN-002, R&D Systems, MN), for two days followed by treatment with DMEM/F12 media supplemented with 2% FBS and 100 ng/ml Activin-A (AA) for an additional two days. Next the cultures were treated with DMEM/F12+2% FBS+20 ng/ml FGF7+0.25 μm Cyclopamine-KAAD (#239804, Calbiochem, CA) for three days followed by four day incubation in DMEM/F12+1% B27 (Invitrogen, CA)+20 ng/ml FGF7+0.25 μm Cyclopamine-KAAD+2 μm Retinoic acid (RA) (Sigma, MO).
Next, the cells were cultured in DMEM/F12+1% B27 (Invitrogen, CA)+50 ng/ml Exendin-4 (Sigma, MO)+1 μm DAPT (Calbiochem, CA) for six days followed by additional three days incubation in DMEM/F12+1% B27 (Invitrogen, CA)+50 ng/ml Exendin-4 (Sigma, MO)+50 ng/ml IGF (Peprotech, N.J.)+50 ng/ml HGF (R&D Systems, MN). Some of the cultures were treated with 1 μM of the following compounds at either stage 3, stage 4, or stages 3+4: MEK/MAPK inhibitor (2′-Amino-3′-methoxyflavone) (PD98059, Calbiochem, CA), RAF kinase inhibitor (5-Iodo-3-R3,5-dibromo-4-hydroxyphenyl)methylenel-2-indolinone) (#553008, Calbiochem, CA), SMAD3 inhibitor (6,7-Dimethyl-2-((2E)-3-(1-methyl-2-phenyl-1Hpyrrolo[2,3-b]pyridin-3-yl-prop-2-enoyl))-1,2,3,4-tetrahydroisoquinoline) (#566405, Calbiochem, CA), AKT inhibitor (1L6-Hydroxymethyl-chiroinositol-2-(R)-2-O-methyl-3-O-octadecyl-sn-glycerocarbonate) (#124005, Calbiochem, CA), MEK inhibitor (#444937 Calbiochem, CA), and TGF-B receptor I inhibitor (2-(3-(6-Methylpyridin-2-yl)-1H-pyrazol-4-yl)-1,5-naphthyridine) (inhibits activin receptor-like kinase 5, #616452, Calbiochem, CA).

[2] = tested on: human embryonic stem cell line H1; settings: end of stage 5, real-time PCR; remark: listed apart in the source
Description: as §1, with “44” for “51”
Next, cells were cultured in DMEM/F12+1% B27 (Invitrogen, CA)+50 ng/ml Exendin-4 (Sigma, MO)+1 μm DAPT (Calbiochem, CA) for six days followed by additional three days incubation in DMEM/F12+1% B27 (Invitrogen, CA)+50 ng/ml Exendin-4 (Sigma, MO)+50 ng/ml IGF (Peprotech, N.J.)+50 ng/ml HGF (R&D Systems, MN). Some of the cultures were treated with 1 μM of TGF-B receptor I kinase inhibitor (2-(3-(6-Methylpyridin-2-yl)-1H-pyrazol-4-yl)-1,5-naphthyridine) (an inhibitor of activin receptor-like kinase 5, #616452, Calbiochem, CA) at stage 4, stage 5, or stages 4 and 5.

[3] = tested on: human embryonic stem cell line H1; settings: 1-10 μm at stages 4 and 5; end of stages 4 to 5; compared to controls (standard treatment)
Description: Next the cultures were treated with DMEM/F12+2% FBS+20 ng/ml FGF7+0.25 μm Cyclopamine-KAAD (#239804, Calbiochem, CA) for three days followed by four day incubation in DMEM/F12+1% B27 (Invitrogen, CA)+20 ng/ml FGF7+0.25 μm Cyclopamine-KAAD+2 μm Retinoic acid (RA) (Sigma, MO).
Next, cells were cultured in DMEM/F12+1% B27 (Invitrogen, CA)+50 ng/ml Exendin-4 (Sigma, MO)+1 μm DAPT (Calbiochem, CA) for six days followed by additional three days incubation in DMEM/F12+1% B27 (Invitrogen, CA)+50 ng/ml Exendin-4 (Sigma, MO)+50 ng/ml IGF (Peprotech, N.J.)+50 ng/ml HGF (R&D Systems, MN).

[4] = tested on: human embryonic stem cell line H1; assay: Real-time PCR of markers, Noggin at stages 3 and/or 4 with ALK5 inhibitor II at stages 4 and 5 (Example 7); format: cell-based
Excerpt: FIGS. 8A-8D depict a phase contrast image of the cultures according to the above protocol. In some of the cultures, stage 5 was extended from 3 days to 21 days. By day 10-12 of culture in stage 5 media, there were distinct clusters of cells resembling human islets present throughout the culture plate. FIGS. 8A-8B show images of day 6 cultures in stage 5 while FIGS. 8C-8D show images of day 12 stage 5 cultures. Some of the clusters were manually removed, plated on 1:30 […]-coated plates in stage 5 media. After 2 days of incubation, the clusters were stained for insulin and glucagon. The majority of the cells in the clusters as shown in FIGS. 9A-9B were positive for human insulin. In order to further optimize the dose of the BMP inhibitor, Noggin; cultures were treated at stage 2-4 with 0, 10, 50, or 100 ng/ml of Noggin. FIG. 10 depicts expression of NGN3 at stage 4 for cultures treated with varying doses of Noggin at stages 2-4.

[5] = tested on: human embryonic stem cell line H1; assay: Real-time PCR of markers, Noggin at stage 3 with ALK5 inhibitor II at stages 4 and 5 (Example 6); format: cell-based
Description: Cells of the human embryonic stem cell line H1, at passage 41 were cultured on […] ™ coated dishes (1:30 dilution) and exposed to DMEM/F12 medium supplemented with 0.5% FBS, and 100 ng/ml Activin-A (R&D Systems, MN) plus 20 ng/ml WNT-3a (Catalog #1324-WN-002, R&D Systems, MN), for two days followed by treatment with DMEM/F12 media supplemented with 2% FBS and 100 ng/ml Activin-A (AA) for an additional two days. Next the cultures were treated with DMEM/F12+2% FBS+20 ng/ml FGF7+0.25 μm Cyclopamine-KAAD (#239804, Calbiochem, CA) for three days followed by four day incubation in DMEM/F12+1% B27 (Invitrogen, CA)+20 ng/ml FGF7+0.25 μm Cyclopamine-KAAD+2 μm Retinoic acid (RA) (Sigma, MO)+0-500 ng/ml of Noggin (R & D Systems, MN).

[6] = tested on: human embryonic stem cell line H1; assay: Real-time PCR of markers, Noggin at stages 3-4, Netrin-4 and ALK5 inhibitor II at stage 4 (Example 8); format: cell-based
[7] = 1 μM added at stage 4 or stages 3 and 4
[8] = 1 μM added at stage 4 or stages 4 and 5
[9] = Noggin at both stages 3 and 4, compared to untreated samples
[10] = omission of Noggin at stage 4, Netrin-4 plus Alk5 inhibitor added, end of stage 5

Cc1cccc(-c2n[nH]cc2-c2ccc3ncccc3n2)n1 [ALK5 inhibitor II, 2-(3-(6-Methylpyridin-2-yl)-1H-pyrazol-4-yl)-1,5-naphthyridine]
expression of PDX-1 [1, 7]: marginally affecting | expression of insulin, glucagon, NeuroD, and NKX2.2 [1, 7]: significantly enhanced | expression of endocrine markers ([1]; 1 μM added only at stage 3): marginally upregulated | expression of PDX-1 [2, 8]: marginally affecting | expression of insulin, glucagon, NeuroD, and NKX2.2 [2, 8]: significantly enhanced | expression of endocrine markers ([2]; 1 μM added only at stage 5): marginally upregulated | expression of insulin, glucagon, PDX-1 and NeuroD [3]: significantly enhanced

B1: Noggin: recombinant human Noggin, BMP inhibitor (R & D Systems) (protein, UniProt Q13253 28-232, looked up)
Noggin: QHYLHIRPAPSDNLPLVDLIEHPDPIFDPKEKDLNETLLRSLLGGHYDPGFMATSPPEDRPGGGGGAAGGAEDLAELDQLLRQRPSGAMPSEIKGLEFSEGLAQGKKQRLSKKLRRKLQMWLWSQTFCPVLYAWNDLGSRFWPRYVKVGSCFSKRSCSVPEGMVCKPSKSVHLTVLRWRCQRRGGQRCGWIPIQYPIISECKCSC
expression of insulin and glucagons ([4]; 100 ng/ml Noggin at stage 3+4 plus ALK5 inhibitor II, stages 4-5): dramatically enhanced | expression of NGN3 [4, 9]: significantly enhanced | expression of albumin and CDX2 [4, 9]: significantly suppressing | Noggin concentration resulting in maximal expression of NGN3 at stage 4 ([4]; cultures treated at stage 2-4 with 0, 10, 50, or 100 ng/ml): 50 to 100 ng/mL | expression of albumin and CDX2 ([5]; 100 ng/ml at stage 3, compared to untreated samples): significantly suppressing | expression of insulin and glucagon ([5]; 100 ng/ml at stage 3, end of stage 4, 1 μm ALK5 inhibitor II at stages 4 and 5): marginally enhanced | expression of PDX-1 ([5]; 500 ng/ml at stage 3): did not affect | expression of endocrine markers, along with albumin and CDX2 ([5]; 500 ng/ml at stage 3): significantly diminish | expression of NGN3, NKX2.2, and NeuroD [6, 10]: significantly reduce | expression of insulin and glucagon [6, 10]: moderately affecting

B2: Netrin-4: netrin protein added at 100 ng/ml (R&D Systems) (protein, UniProt Q9HB63 19-628, looked up)
Netrin-4: GLSGVAGVSSRCEKACNPRMGNLALGRKLWADTTCGQNATELYCFYSENTDLTCRQPKCDKCNAAYPHLAHLPSAMADSSFRFPRTWWQSAEDVHREKIQLDLEAEFYFTHLIVMFKSPRPAAMVLDRSQDFGKTWKPYKYFATNCSATFGLEDDVVKKGAICTSKYSSPFPCTGGEVIFKALSPPYDTENPYSAKVQEQLKITNLRVQLLKRQSCPCQRNDLNEEPQHFTHYAIYDFIVKGSCFCNGHADQCIPVHGFRPVKAPGTFHMVHGKCMCKHNTAGSHCQHCAPLYNDRPWEAADGKTGAPNECRTCKCNGHADTCHFDVNVWEASGNRSGGVCDDCQHNTEGQYCQRCKPGFYRDLRRPFSAPDACKPCSCHPVGSAVLPANSVTFCDPSNGDCPCKPGVAGRRCDRCMVGYWGFGDYGCRPCDCAGSCDPITGDCISSHTDIDWYHEVPDFRPVHNKSEPAWEWEDAQGFSALLHSGKCECKEQTLGNAKAFCGMKYSYVLKIKILSAHDKGTHVEVNVKIKKVLKSTKLKIFRGKRTLYPESWTDRGCTCPILNPGLEYLVAGHEDIRTGKLIVNMKSFVQHWKPSLGRKVMDILKRECK
expression of NGN3, NeuroD, and Pax4 ([6]; 100 ng/ml Netrin-4 and ALK5 inhibitor II at stage 4 plus 100 ng/ml Noggin at stage 3 and 4): dramatically enhanced
